A short description of this data set: Isoelectric point (pI) of the GLP-1 peptide. The data set is classed as physicochemical. To be noted: pH value where the peptide carries no net charge. From the text: Exemplary non-volatile bases are sodium hydroxide, potassium hydroxide, buffers selected from e.g. a phosphate buffer, a TRIS buffer, an acetate buffer. The ‘pI’ as used herein refers to the isoelectric point of the GLP-1 peptide, i.e. the pH value where the peptide carried no net charge.

In the case of “N^6,26-{18-[N-(17-carboxyheptadecanoyl)-L-γ-glutamyl]-10-oxo-3,6,12,15-tetraoxa-9,18-diazaoctadecanoyl}-[8-(2-amino-2-propanoic acid), 34-L-arginine]human glucagon-like peptide 1(7-37) [semaglutide]”, the pI result is recorded as “about 5.4”.
“Nε27-[2-[2-[2-[[2-[2-[2-[[(4S)-4-carboxy-4-[10-(4-carboxyphenoxy)decanoylamino]butanoyl]amino]ethoxy]ethoxy]acetyl]amino]ethoxy]ethoxy]acetyl], Nε36-[2-[2-[2-[[2-[2-[2-[[(4S)-4-carboxy-4-[10-(4-carboxyphenoxy)decanoylamino]butanoyl]amino]ethoxy]ethoxy]acetyl]amino]ethoxy]ethoxy]a cetyl]-[Aib8,Glu22,Arg26,Lys27,Glu30,Arg34,Lys36]-GLP-1-(7-37)-peptidyl-Glu-Gly [Compound A]”: the pI result is recorded as “about 4.6”.

The record behind these values is patent US20220409701A1, “PROCESS FOR PRODUCING A TABLET COMPRISING GLP-1 PEPTIDES” (Novo Nordisk A/S, priority 2019, published 2022).
